The target in test [1] is recombinant GRP78 full length protein (UniProt P11021). As to the kind of experiment: Biacore, recombinant full length GRP78, scFv1183-Fc from 500 nM in two-fold dilutions. (Surface plasmon resonance follows binding to a sensor surface in real time, without labels.)
Test [2] addresses 78-kDa glucose-regulated protein (GRP78) (UniProt P11021). As to the kind of experiment: flow cytometry, irradiated A549 cells, % of positive cells, 4PL fit.
Test [3] addresses recombinant GRP78 full length protein (UniProt P11021). Put plainly: Biacore, recombinant full length GRP78, scFv1171-Fc from 500 nM in two-fold dilutions.
The target of test [4] is 78-kDa glucose-regulated protein (GRP78) (UniProt P11021). As to the kind of experiment: flow cytometry, irradiated A549 cells, gMFI minus secondary only, one site-specific binding fit. A general note: In flow cytometry, cells or beads pass a laser one at a time.
78-kDa glucose-regulated protein (GRP78), sequence (P11021 19-654 limits assumed): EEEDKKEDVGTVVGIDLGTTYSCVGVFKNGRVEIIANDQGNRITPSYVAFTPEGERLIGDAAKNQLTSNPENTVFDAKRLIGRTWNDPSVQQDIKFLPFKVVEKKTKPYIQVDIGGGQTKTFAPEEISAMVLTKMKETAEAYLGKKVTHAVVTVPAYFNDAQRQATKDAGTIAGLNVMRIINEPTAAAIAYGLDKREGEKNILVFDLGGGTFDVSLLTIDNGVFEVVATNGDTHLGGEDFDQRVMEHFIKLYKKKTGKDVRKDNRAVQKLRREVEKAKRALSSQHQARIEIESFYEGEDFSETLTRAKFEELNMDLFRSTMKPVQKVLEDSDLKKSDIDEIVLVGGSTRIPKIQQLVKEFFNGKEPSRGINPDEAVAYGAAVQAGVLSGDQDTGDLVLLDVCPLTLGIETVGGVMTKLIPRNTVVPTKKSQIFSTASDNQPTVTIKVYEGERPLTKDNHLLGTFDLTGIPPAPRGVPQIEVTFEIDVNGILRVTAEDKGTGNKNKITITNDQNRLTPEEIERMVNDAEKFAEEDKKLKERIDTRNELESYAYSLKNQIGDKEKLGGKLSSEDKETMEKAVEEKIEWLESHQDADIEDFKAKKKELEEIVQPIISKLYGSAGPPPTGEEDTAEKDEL

recombinant GRP78 full length protein, sequence (P11021 19-654 limits assumed): as above

B1: anti-GRP78 scFv-Fc 1183 (Fc fusion, part only; not given: Linker, domain order, Fc, not shown: another chain or arm of the molecule; a dimerising Fc or GST; small tags and cut ends)
VH: QMQLVQSGAEVKKPGSSVKVSCKASGGTFSSYAISWVRQAPGQGLEWMGWISAYNGNTNYAQKLQGRVTMTTDTSTSTAYMELRSLRSDDTAVYYCARDPPLRYFDWFRGSDWFDPWGQGTLVTVS
VL: NFMLTQPHSVSESPGKTVTISCTRSSGSIASNYVQWYQQRPGSSPTTVIYEDNQRPSGVPDRFSGSIDSSSNSASLTISGLKTEDEADYYCQSYDSTNGVFGGGTKLTVL
Broadly, the Kd is the constant that tells how readily two partners part at equilibrium. Usually koff stands for the rate constant with which the complex falls apart. The term kon denotes a measure of how fast the partners come together. Take B1: in test [1], the Kd amounted to 8.4 nM, the koff turned out to be 0.00793 s⁻¹ and the kon stood at 944000 M⁻¹ s⁻¹.

B2: anti-GRP78 scFv-Fc 1171 (Fc fusion, part only; not given: Linker, domain order, Fc, not shown: another chain or arm of the molecule; a dimerising Fc or GST; small tags and cut ends)
VH: QVQLVQSGAEVKKPGSSVKVSCKSSGGTFSNPVISWVRQAPGQGLEWMGGIITMFGTTYYGNSVRGRFIVSRDNSKNMLFLQMNSLRAEDTAVYYCAKDPPMFDYWGQGTLVTVS
VL: DIQLTQSPSSLSASVGDRVTITCRASQSISSYLNWYQQKPGKAPKLLIYDASNLETGVPSRFSGSGSGTDFTFTISSLQPEDIATYYCQQYDNLLALTFGGGTKVDIK
Usually EC50 stands for the concentration at which the effect is half-maximal. A higher EC50 goes with a need for much substance. B2: in test [2], the half-maximal effective concentration (EC50) turned out to be 16.8 nM. Also, in test [3], the Kd stood at 4.77 nM, the koff came out at 0.00324 s⁻¹ and the on-rate (kon) is 679000 M⁻¹ s⁻¹. The molecule also came in with a dissociation constant Kd in test [4] of 18.7 nM.

The values are drawn from patent US20220259322A1.
